Where a chain is given by its changes, count along the chain named.

Experiment [1] addresses T1, human ROR1 on cells (HEK293T-hROR1, PANC-1, A549) (human, UniProt Q01973 30-937).
T1 construct: whole, on cells; one molecule for the three cell lines; also called huROR1; cell surface ROR1
The experiment in a line: flow cytometry on PANC-1 cells, MFI (APC-A Median). As to the method:
(§1) Binding of recombinant anti-ROR1 antibodies to human or cynomolgus ROR1-overexpressing cells was tested by flow cytometry. In this example, ROR1-expressing cell lines are HEK293T cell lines that had been transfected to express human ROR1 on the surface (HEK293T-hu ROR1, KYINNO BIOTECHNOLOGY CO., LTD, Catalog #KC-1018), CHO-K1 cell lines that had been transfected to express cynomolgus ROR1 (CHOK1-cyno ROR1), PANC-1 (ATCC, catalog: CRL-1469) or A549 cell lines (Shanghai Institute of Biochemistry and Cell Biology, Chinese Academy of Sciences).
(§2) In brief, anti-ROR1 antibodies were serially diluted in staining buffer (PBS containing 2% FBS). Antibody solution was incubated with 1×10⁵ cells at 4° C. for 1 hour. […] After 1-hour incubation at 4° C., cells were washed twice with staining buffer and subjected to flow cytometry. PR000374 (Bench marker 1) and non-relevant IgG isotype control (Crownbio) were used as positive and negative controls, respectively.
For orientation: In flow cytometry, cells or beads pass a laser one at a time.

Experiment [2] concerns the target T2, cynomolgus ROR1 on CHO-K1-cynoROR1 cells (cynomolgus monkey, UniProt A0A2K5WTX7 30-937).
T2 construct: whole, on cells
The experiment in a line: flow cytometry on CHOK1-cynoROR1 cells, MFI (APC-A Median) [top panel]. How it is done: as §1, §2

For experiment [3], the target named is T2, cynomolgus ROR1 on CHO-K1-cynoROR1 cells. The experiment in a line: flow cytometry, CHO-K1-cynoROR1 cells. As to the method: as §1, §2
The target in experiment [4] is T1, human ROR1 on cells (HEK293T-hROR1, …). The experiment in a line: flow cytometry, PANC-1 cells. As to the method:
as §2

The target is the same in experiment [5]. The experiment in a line: flow cytometry, PANC-1 cells. How it is done:
as §2
Binding activity of the variants to PANC-1 cells were tested using the same method described in example 5.1. The results were shown in FIGS. 7-8 and Table 11 and Table 12.
This is another data set of the same source.

Experiment [6] has the same target. The experiment can be described thus: flow cytometry on PANC-1 cells, MFI (Median-APC) [top panel].
For experiment [7] the target is unchanged. The experiment in a line: flow cytometry on PANC-1 cells, MFI (Median-APC) [middle panel, letter not given].
Experiment [8] has the same target. The experiment can be described thus: flow cytometry on PANC-1 cells, MFI (Median-APC) [bottom panel, letter not given].
The target is the same in experiment [9]. The experiment can be described thus: flow cytometry, HEK293T-hROR1 cells. As to the method:
as §2

Experiment [10] has the same target. The experiment can be described thus: flow cytometry, A549 cells. As to the method: as §2
Experiment [11] has as its target T3, Human ROR1-ECD-his (Acro Biosystems RO1-H522y) (human, UniProt Q01973 30-406).
T3 construct: extracellular domain; bought protein; also called hROR1-ECD-his; hu-ROR1-ECD-his
The experiment in a line: ELISA, coated hu-ROR1-ECD-his. How it is done: (§3) Binding of recombinant anti-ROR1 antibodies to hu-ROR1-ECD-his was tested by ELISA. In brief, 1 μg/mL hu-ROR1-ECD-his was added to the 96-well plate, 100 μL each well, incubated at 4° C. overnight, washing the plates with 1×PBST 3 times, 300 ul/well, blocking the plates with 2% BSA in 1×PBST, 200 ul/well at 37° C. for 1 hour, anti-ROR1 antibodies were serially diluted in staining buffer (PBS containing 2% BSA). Antibody solution was added to the plate and incubates at 37° C. for 1 hour, washing the plates with 1×PBST 3 times, 300 ul/well, adding secondary antibody 100 ul/well and incubate at 37° C. for 1 hour, washing the plates with 1×PBST 3 times, 300 ul/well and then add 100 ul/well TMB for about 5 min, stop the reaction by adding 100 ul/well 2M H₂SO₄, read the plates with Molecular device spectra max plus384 at 450 nm and 570 nm.
(An ELISA detects its analyte on a solid surface through an enzyme-linked reagent.)

Experiment [12] deals with T3, Human ROR1-ECD-his (Acro Biosystems …). The experiment can be described thus: ELISA, plate coated with hu-ROR1-his at 1 µg/mL. As to the method:
as §3

For experiment [13], the target named is T2, cynomolgus ROR1 on CHO-K1-cynoROR1 cells. The experiment in a line: flow cytometry, CHO-K1-cynoROR1 cells. How it is done: as §2
The source holds these as a separate data set.

Experiment [14] concerns the target T1, human ROR1 on cells (HEK293T-hROR1, …). The experiment in a line: flow cytometry on HEK293T-hROR1 cells, MFI (Mean). How it is done: as §1, §2
Experiment [15] addresses T4, hu-ROR2-ECD-his (Acrobiosystems RO2-H52E5) (human, UniProt Q01974 34-403).
T4 construct: extracellular domain; bought protein; also called Human ROR2 his-tagged protein; Human ROR2, His Tag
The experiment in a line: ELISA, plate coated with hu-ROR2-his at 1 µg/mL. As to the method:
as §3, with “1” for “Binding of recombinant anti-ROR1 antibodies to hu-ROR1-ECD-his was tested by ELISA. In brief, 1”, “hu-ROR2-ECD-his (Acrobiocystems, RO2-H52E5)” for “hu-ROR1-ECD-his”

In experiment [16] the target is T3, Human ROR1-ECD-his (Acro Biosystems …). The experiment in a line: BLI, ROR1-His on HIS1K sensor, antibody in solution. As to the method: In the example, binding kinetics of anti-ROR1 antibodies to soluble ROR1 protein were analyzed by using Bio-Layer Interferometry (BLI) analysis on Fortebio Octet Red384 instrument (Fortebio).
In BLI analysis, recombinant anti-ROR1 antibodies was serially diluted with 10× kinetics buffer (Fortebio). Human ROR1-His proteins were diluted to 20 nM. Then the diluted antibodies, ROR1 proteins and regeneration buffer (10 mM glycine HCl pH 1.5) were added to 96-well plates (Greiner). Rate constants for association and dissociation were measured using HIS1K sensor (Fortebio). The sensor surface was regenerated after each binding experiment with regeneration buffer. The traces were processed using Octet Data Analysis Software (version 11.0, Pall ForteBio, CA, USA).

T3 sequence (Q01973 30-406): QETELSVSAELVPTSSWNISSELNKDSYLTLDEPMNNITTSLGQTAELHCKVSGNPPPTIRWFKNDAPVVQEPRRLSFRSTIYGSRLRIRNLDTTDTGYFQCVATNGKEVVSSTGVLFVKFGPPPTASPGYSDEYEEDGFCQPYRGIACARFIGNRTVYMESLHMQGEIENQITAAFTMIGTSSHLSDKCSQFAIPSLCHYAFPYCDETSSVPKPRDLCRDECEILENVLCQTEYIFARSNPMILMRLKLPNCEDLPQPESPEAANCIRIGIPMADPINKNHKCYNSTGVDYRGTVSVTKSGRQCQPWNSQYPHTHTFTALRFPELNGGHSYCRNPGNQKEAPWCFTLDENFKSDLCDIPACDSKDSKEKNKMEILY
T1 sequence (Q01973 30-937): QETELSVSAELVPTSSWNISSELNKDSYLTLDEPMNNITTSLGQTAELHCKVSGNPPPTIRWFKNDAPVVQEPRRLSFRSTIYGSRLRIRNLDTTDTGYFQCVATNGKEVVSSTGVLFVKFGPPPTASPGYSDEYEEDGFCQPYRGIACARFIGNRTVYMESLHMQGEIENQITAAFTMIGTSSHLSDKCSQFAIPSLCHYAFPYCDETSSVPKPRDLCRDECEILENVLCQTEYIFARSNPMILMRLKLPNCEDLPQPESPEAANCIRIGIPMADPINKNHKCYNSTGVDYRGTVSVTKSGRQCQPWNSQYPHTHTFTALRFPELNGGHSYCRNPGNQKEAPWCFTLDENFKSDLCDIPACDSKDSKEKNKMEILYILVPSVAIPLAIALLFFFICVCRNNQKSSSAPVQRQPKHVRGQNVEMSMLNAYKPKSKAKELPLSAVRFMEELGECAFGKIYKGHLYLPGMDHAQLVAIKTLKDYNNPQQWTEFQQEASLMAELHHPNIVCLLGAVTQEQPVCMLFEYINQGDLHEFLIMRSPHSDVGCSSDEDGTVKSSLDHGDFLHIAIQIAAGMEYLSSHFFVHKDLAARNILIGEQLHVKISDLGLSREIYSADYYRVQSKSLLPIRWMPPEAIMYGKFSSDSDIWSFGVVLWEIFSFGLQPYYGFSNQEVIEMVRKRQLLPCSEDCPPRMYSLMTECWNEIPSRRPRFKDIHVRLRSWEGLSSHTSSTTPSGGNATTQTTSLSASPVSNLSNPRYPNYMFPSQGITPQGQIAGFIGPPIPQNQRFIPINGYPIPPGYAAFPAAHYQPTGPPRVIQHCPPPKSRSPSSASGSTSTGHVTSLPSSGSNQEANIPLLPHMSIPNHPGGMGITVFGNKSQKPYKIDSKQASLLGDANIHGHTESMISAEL
T4 sequence (Q01974 34-403): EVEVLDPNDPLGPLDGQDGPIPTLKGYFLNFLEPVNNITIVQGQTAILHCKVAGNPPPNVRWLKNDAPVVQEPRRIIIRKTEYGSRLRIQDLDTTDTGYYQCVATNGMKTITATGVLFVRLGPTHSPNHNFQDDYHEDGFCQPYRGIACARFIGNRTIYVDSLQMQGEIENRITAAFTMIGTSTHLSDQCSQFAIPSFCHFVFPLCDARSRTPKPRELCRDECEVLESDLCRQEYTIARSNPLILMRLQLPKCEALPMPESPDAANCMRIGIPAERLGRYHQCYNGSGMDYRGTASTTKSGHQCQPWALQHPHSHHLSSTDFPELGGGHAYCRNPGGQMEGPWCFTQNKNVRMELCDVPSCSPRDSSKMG

B1: PR005337 (antibody, human IgG1, V domains shown)
VH: EVQLVESGGGLVKPGGSLRLSCAASGFIFSDYYMSWIRQAPGKGLEWVSYISSSGSTIHYADSVKGRFTVSRDNAKNSLYLQMNSLRTEDTAVYYCARDPPTSNSDWVSLHFDHWGQGTLVTVSS
notes: HCAb (heavy chain-only, human IgG1 Fc), no light chain
As for B1, the “EC50 (read off the curve)” value in experiment [1] and in experiment [2] was approximately 20000 pM each time. Moreover, the results for the Max in experiment [3] and in experiment [4] were 31100 and 14700, respectively.

B2: PR007411 (antibody, V domains shown)
VH: EVQLVESGGGLVKPGGSLRLSCAASGFTFSDFYMSWIRQAPGKGLEWISYISSSGSTIHYADSVKGRFTISRDNAKNSLYLQMNSLRAEDTAIYYCARDMPSSSSDWVDLQFDYWGQGTLVTVSS
notes: bivalent form (HCAb) variant of PR005340, no light chain
In the case of B2, the TOP in [5] turned out to be 81400. Moreover, in experiment [6], the “EC50 (read off the curve)” value is approximately 700 pM.

B3: PR007409 (antibody, V domains shown)
VH: B2 VH with T57W, M100I
notes: as for B2
The molecule B3 returned a TOP in [5] of 87400. Besides, the “EC50 (read off the curve)” value in experiment [6] is approximately 800 pM.

B4: PR007413 (antibody, V domains shown)
VH: B2 VH with S52N, S53T, S54R, T57P, H59G
notes: as for B2
Turning to B4, in experiment [5], the TOP stood at 89800. For the same molecule, in experiment [7], the “EC50 (read off the curve)” value was approximately 600 pM.

B5: PR007412 (antibody, V domains shown)
VH: B2 VH with T57W, D109S
notes: as for B2
In the case of B5, the TOP in experiment [5] worked out at 77200. Further, in [6], the “EC50 (read off the curve)” value is approximately 500 pM.

B6: PR007422 (antibody, V domains shown)
VH: B2 VH with S52D, S56R, T57P, I58L, H59A, M100I, D109S
notes: as for B2
In experiment [5], B6 had a TOP of 73600. For the same molecule, the “EC50 (read off the curve)” value in experiment [8] is approximately 600 pM.

B7: PR007423 (antibody, V domains shown)
VH: B2 VH with F32Y, S52D, S56R, T57P, I58L, H59A, M100I
notes: as for B2
In turn, B7 registered a TOP in [5] of 74500. Further, the “EC50 (read off the curve)” value in experiment [8] was approximately 400 pM.

B8: PR007410 (antibody, V domains shown)
VH: B2 VH with T57Y, M100I
notes: as for B2
In experiment [5], B8 showed a TOP of 80300. Further, in experiment [6], the “EC50 (read off the curve)” value was approximately 800 pM.

B9: PR007419 (antibody, V domains shown)
VH: B2 VH with S52N, S53T, S54R, T57P, H59G, D109S
notes: as for B2
B9: in experiment [5], the TOP was found to be 75700. Also, the “EC50 (read off the curve)” value in experiment [8] was approximately 800 pM.

B10: PR007414 (antibody, V domains shown)
VH: B2 VH with I58R, H59Y
notes: as for B2
Regarding B10, the TOP in experiment [5] was determined as 88900. Also, in experiment [7], the “EC50 (read off the curve)” value is approximately 500 pM.

B11: PR007408 (antibody, V domains shown)
VH: B2 VH with T57Y
notes: as for B2
B11 showed a TOP in experiment [5] of 87000. Besides, in experiment [6], the “EC50 (read off the curve)” value is approximately 400 pM.

B12: PR007416 (antibody, V domains shown)
VH: B2 VH with S52N, S53T, S54R, T57P, H59G, M100I
notes: as for B2
B12: the TOP in experiment [5] is 87600. Also, in experiment [7], the “EC50 (read off the curve)” value is approximately 700 pM.

B13: PR007415 (antibody, V domains shown)
VH: B2 VH with S52D, S56R, T57P, I58L, H59A
notes: as for B2
On to B13, for which, in [5], the TOP was 82800. Besides, in experiment [7], the “EC50 (read off the curve)” value was approximately 400 pM.

B14: PR007418 (antibody, V domains shown)
VH: B2 VH with S52D, S56R, T57P, I58L, H59A, M100I
notes: as for B2
Turning to B14, the TOP in experiment [5] amounted to 81300. Besides, in experiment [7], the “EC50 (read off the curve)” value was approximately 400 pM.

B15: PR007420 (antibody, V domains shown)
VH: B2 VH with I58R, H59Y, D109S
notes: as for B2
In the case of B15, the TOP in experiment [5] stood at 79500. Besides, in experiment [8], the “EC50 (read off the curve)” value is approximately 700 pM.

B16: PR303147 (antibody, human IgG1, V domains shown)
VH: EVQLVESGGGLVQPGGSLRLSCAASGFTFSNFWMYWVRQAPGKGLVWVSRINSDGSSTNYADSVKGRFTISRDNAKNTLYLQMNSLRVEDTAVYSCAREGSGWYEDFDYWGQGTLVTVSS
notes: as for B1
Consider B16, for which the EC50 in experiment [9] was determined as 0.325 µg/mL; in experiment [10], 6.46 µg/mL; in [11] it was 0.023 µg/mL; in experiment [13], 1.26 µg/mL; in experiment [4] it was 7.77 µg/mL. The “MAX(MFI)” value in experiment [9] came out at 1.46e+07 MFI; in [10], 412000 MFI; in [13], 3.67e+06 MFI; in experiment [4], 291000 MFI. In addition, the “EC50 (read off the curve)” value in [12] is approximately 0.02 µg/mL; in experiment [14], approximately 0.3 µg/mL. Further, the binding result in experiment [15] was “no binding (tested: about 15 µg/ml)”. In addition, the Kd in experiment [16] came to 11200 pM. The koff in experiment [16] was 0.0165 s⁻¹. Moreover, in experiment [16], the kon came to 1.47e+06 M⁻¹ s⁻¹.

B17: PR005341 (antibody, human IgG1, V domains shown)
VH: EVQLVESGGGLVKPGGSLRLSCVASGFTFSDYYMSWIRQAPGKGLEWISYISSSGSSIYYAESVKGRFTISRDNAKNSLYLQMNRLRAEDTALYYCARTPPSSDNWYEDFDYWGQGALVTVSS
notes: as for B1
On to B17, for which the 50% effective concentration (EC50 (read off the curve)) in experiment [1] is approximately 2000 pM; in [2], approximately 3000 pM. In addition, the Max is 32900 in experiment [3] and 16500 in experiment [4].

Broadly, the EC50 (read off the curve) is the concentration giving half of the maximal effect. Low readings indicate greater potency, high ones weaker potency. As usually defined, the EC50 is the concentration that produces a half-maximal response. Read a low EC50 as an effect from little substance. As a reminder, the Kd is the constant that tells how readily two partners part at equilibrium. One may read the koff as a measure of how fast the partners let go of each other. One may read the kon as a measure of how fast the partners come together. A low value points to slower complex formation.

The record behind these values is US20250257130A1 (NONA BIOSCIENCES SUZHOU, published 2025).
